Results on 1 molecule are retold here after patent US6713247B1, “Human CNS cell lines and methods of use therefor” (Signal Pharmaceuticials, Inc., priority 1996, dated 2004).

One experiment has as its system clone C10. Kind of experiment: Effects of EGF and PDGF on proliferation and survival, clone C10. It counts as cell-based, human. The method, then: (§1) EGF and PDGF Enhance Proliferation Rate and Cell Survival. To facilitate the expansion of the human CNS clones, we identified factors that increase the proliferation rate and/or cell survival. To examine the effects of EGF and PDGF on the proliferation and survival of the human CNS clones, 40 ng/mL EGF, 20 ng/mL PDGF or both were added to the standard growth medium, which already contained FGF-2 and 50% CM, and total cell number and BrdU uptake and incorporation were assessed as described above. For clone C2, EGF or PDGF addition increased the total cell number (FIG. 11A) by approximately 2-fold. This increase in cell number was due to enhanced cell viability (decreased cell death), since there were only slight increases in proliferation rate (assessed by BrdU uptake and incorporation, FIG. 11B). […] In the case of clone C10, EGF (but not PDGF) addition increased the total cell number (FIG. 12A) by approximately 40%. […] This increase in cell number was due, at least in part, to enhanced proliferation rates; BrdU uptake and incorporation increase about 2-fold with EGF or EGF+PDGF addition (FIG. 12B), and doubling times (based on cell counts as a function of days in vitro, data not shown) decreased from 3 days (no EGF or PDGF addition) to 2 days (EGF+PDGF addition). […]

In the next experiment the test system is clone C2. Kind of experiment: Effects of EGF and PDGF on proliferation and survival, clone C2. It counts as cell-based, human. Particulars: added to growth medium with FGF-2 and 50% CM, EGF 40 ng/mL, PDGF 20 ng/mL. The method, then: as §1

B1: EGF: human recombinant epidermal growth factor (protein, UniProt P01133 23-1207, looked up)
Pro-epidermal growth factor: PQHWSCPEGTLAGNGNSTCVGPAPFLIFSHGNSIFRIDTEGTNYEQLVVDAGVSVIMDFHYNEKRIYWVDLERQLLQRVFLNGSRQERVCNIEKNVSGMAINWINEEVIWSNQQEGIITVTDMKGNNSHILLSALKYPANVAVDPVERFIFWSSEVAGSLYRADLDGVGVKALLETSEKITAVSLDVLDKRLFWIQYNREGSNSLICSCDYDGGSVHISKHPTQHNLFAMSLFGDRIFYSTWKMKTIWIANKHTGKDMVRINLHSSFVPLGELKVVHPLAQPKAEDDTWEPEQKLCKLRKGNCSSTVCGQDLQSHLCMCAEGYALSRDRKYCEDVNECAFWNHGCTLGCKNTPGSYYCTCPVGFVLLPDGKRCHQLVSCPRNVSECSHDCVLTSEGPLCFCPEGSVLERDGKTCSGCSSPDNGGCSQLCVPLSPVSWECDCFPGYDLQLDEKSCAASGPQPFLLFANSQDIRHMHFDGTDYGTLLSQQMGMVYALDHDPVENKIYFAHTALKWIERANMDGSQRERLIEEGVDVPEGLAVDWIGRRFYWTDRGKSLIGRSDLNGKRSKIITKENISQPRGIAVHPMAKRLFWTDTGINPRIESSSLQGLGRLVIASSDLIWPSGITIDFLTDKLYWCDAKQSVIEMANLDGSKRRRLTQNDVGHPFAVAVFEDYVWFSDWAMPSVMRVNKRTGKDRVRLQGSMLKPSSLVVVHPLAKPGADPCLYQNGGCEHICKKRLGTAWCSCREGFMKASDGKTCLALDGHQLLAGGEVDLKNQVTPLDILSKTRVSEDNITESQHMLVAEIMVSDQDDCAPVGCSMYARCISEGEDATCQCLKGFAGDGKLCSDIDECEMGVPVCPPASSKCINTEGGYVCRCSEGYQGDGIHCLDIDECQLGEHSCGENASCTNTEGGYTCMCAGRLSEPGLICPDSTPPPHLREDDHHYSVRNSDSECPLSHDGYCLHDGVCMYIEALDKYACNCVVGYIGERCQYRDLKWWELRHAGHGQQQKVIVVAVCVVVLVMLLLLSLWGAHYYRTQKLLSKNPKNPYEESSRDVRSRRPADTEDGMSSCPQPWFVVIKEHQDLKNGGQPVAGEDGQAADGSMQPTSWRQEPQLCGMGTEQGCWIPVSSDKGSCPQVMERSFHMPSYGTQTLEGGVEKPHSLLSANPLWQQRALDPPHQMELTQ
modifications: Pro-epidermal growth factor
In the case of B1, in the experiment on clone C10, the “increase in BrdU uptake and incorporation” value is “approximately 2 fold”. Besides, the “increase in total cell number” value in the experiment on clone C10 (EGF 40 ng/mL added to growth medium with FGF-2 and 50% CM) is listed as “approximately 40%”; in the experiment with clone C2, “approximately 2 fold”.
